# According to patent US20200247897A1 (Genmab, published 2020):
# B1: IgG1-hDR5-05-F405L (antibody, name in EU numbering)
# heavy: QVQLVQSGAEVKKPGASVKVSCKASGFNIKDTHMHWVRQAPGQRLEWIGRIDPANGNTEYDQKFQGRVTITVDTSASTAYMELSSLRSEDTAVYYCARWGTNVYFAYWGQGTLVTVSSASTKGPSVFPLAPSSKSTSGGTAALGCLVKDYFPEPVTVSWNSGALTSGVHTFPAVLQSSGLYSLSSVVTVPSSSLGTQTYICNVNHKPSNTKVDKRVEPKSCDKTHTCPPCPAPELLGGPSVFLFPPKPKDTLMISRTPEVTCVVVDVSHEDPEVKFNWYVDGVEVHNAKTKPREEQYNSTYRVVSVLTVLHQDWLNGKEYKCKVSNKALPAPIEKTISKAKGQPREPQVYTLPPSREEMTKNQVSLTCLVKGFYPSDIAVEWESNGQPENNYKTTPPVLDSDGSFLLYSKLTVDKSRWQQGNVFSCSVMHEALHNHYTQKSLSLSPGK
# light: DIQLTQSPSSLSASVGDRVTITCSASSSVSYMYWYQQKPGKAPKPWIYRTSNLASGVPSRFSGSGSGTDFTLTISSLQPEDFATYYCQQYHSYPPTFGGGTKVEIKRTVAAPSVFIFPPSDEQLKSGTASVVCLLNNFYPREAKVQWKVDNALQSGNSQESVTEQDSKDSTYSLSSTLTLSKADYEKHKVYACEVTHQGLSSPVTKSFNRGEC
# notes: Expressed as IgG1,kappa; also called humanized DR5-05
# B2: IgG1-hDR5-05-E430G (antibody)
# heavy: not shown
# light: B1 light
# B3: IgG1-hDR5-05-N55D-F405L (antibody, V domains shown)
# VH: QVQLVQSGAEVKKPGASVKVSCKASGFNIKDTHMHWVRQAPGQRLEWIGRIDPADGNTEYDQKFQGRVTITVDTSASTAYMELSSLRSEDTAVYYCARWGTNVYFAYWGQGTLVTVSS
# VL: DIQLTQSPSSLSASVGDRVTITCSASSSVSYMYWYQQKPGKAPKPWIYRTSNLASGVPSRFSGSGSGTDFTLTISSLQPEDFATYYCQQYHSYPPTFGGGTKVEIKR
# Columns and labels:
# murine DR5 = target: T1, murine DR5 (mouse (Mus musculus), UniProt Q9QZM4 53-381); test: flow cytometry on transfected CHO cells
# T1 construct: also called mouse DR5
# [1] = target: T2, cynomolgus monkey DR5 protein with deletion of amino acids 185-213 and death domain loss-of-function mutation … (cynomolgus monkey (Macaca fascicularis)); test: flow cytometry on cynomolgus DR5-transfected CHO cells; four experiments
# T2 construct: also called Cyno DR5Mfdel-K420N
# T2 chain: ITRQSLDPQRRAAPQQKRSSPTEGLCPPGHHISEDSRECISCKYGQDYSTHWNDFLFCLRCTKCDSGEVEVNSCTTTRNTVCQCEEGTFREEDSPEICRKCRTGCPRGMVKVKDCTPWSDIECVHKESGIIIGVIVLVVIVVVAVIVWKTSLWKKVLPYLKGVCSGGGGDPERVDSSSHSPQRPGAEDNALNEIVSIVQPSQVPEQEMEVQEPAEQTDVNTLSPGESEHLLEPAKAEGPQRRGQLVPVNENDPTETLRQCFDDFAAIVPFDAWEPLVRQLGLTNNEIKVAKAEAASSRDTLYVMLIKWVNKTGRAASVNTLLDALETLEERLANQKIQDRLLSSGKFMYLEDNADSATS
# [2] = target: T3, human DR5 (death receptor 5) on DR5-positive human colon cancer cells (human, UniProt O14763 56-440); test: flow cytometry on HCT 116 cells
# T3 construct: Endogenous receptor of the cell lines; also called CD262; TRAILR2
# T1 sequence (Q9QZM4 53-381 limits assumed): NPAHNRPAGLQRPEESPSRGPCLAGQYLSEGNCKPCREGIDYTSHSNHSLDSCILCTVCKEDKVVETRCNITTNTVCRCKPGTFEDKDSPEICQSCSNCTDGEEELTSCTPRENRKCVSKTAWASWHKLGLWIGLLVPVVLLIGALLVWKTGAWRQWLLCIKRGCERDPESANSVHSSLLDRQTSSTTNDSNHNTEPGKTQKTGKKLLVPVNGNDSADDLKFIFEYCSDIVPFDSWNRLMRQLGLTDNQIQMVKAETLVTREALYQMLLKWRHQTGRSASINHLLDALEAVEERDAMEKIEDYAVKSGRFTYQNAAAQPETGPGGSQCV
binder,measurement,setting,value
B1,binding result,murine DR5,no binding (tested: 10 µg/mL)
B2,EC50,[1],0.17 µg/mL
B3,binding result,[2],binds
